Measured values published in patent US20180305405A1.
Where no end group is shown, it is not given here.

B1: cyclic nonapeptide RGD-4C (peptide)
peptide: H-CDCRGDCFC-NH2
modifications: disulfide (positions not given here); also: two disulfides, pairing not given here
B2: Eu-labeled RGD-4C (isothiocyanatophenyl-DTPA-Eu-RGD-4C) (peptide)
peptide: CDCRGDCFC-NH2
modifications: disulfide (positions not given here); also: two disulfides among four Cys, pairing not given here, isothiocyanatophenyl-DTPA-Eu conjugated, site not given here

Assays:
[1] = biological target: αvβ3 integrin receptor expressed on mouse H5V endothelial cells (mouse) (UniProt P43406); assay: cell-based or functional assay
[2] = biological target: αvβ3 integrin receptor expressed on mouse H5V endothelial cells (mouse) (UniProt P43406); assay: H5V cell binding assay at 4 °C, time-resolved fluorometry; non-specific binding defined with 1 µM RGD-4C; highest ligand concentration
[3] = biological target: αvβ3 integrin receptor expressed on mouse H5V endothelial cells (mouse) (UniProt P43406); assay: Scatchard analysis of Eu-RGD-4C binding to H5V cells at 4 °C, time-resolved fluorometry
[4] = biological target: αvβ3 integrin receptor expressed on mouse H5V endothelial cells (mouse) (UniProt P43406); assay: H5V cell binding assay at 4 °C, time-resolved fluorometry; non-specific binding defined with 1 µM RGD-4C; low ligand concentrations

Chain of αvβ3 integrin receptor expressed on mouse H5V endothelial cells (mouse) (P43406 31-1044, chain 1 of 2): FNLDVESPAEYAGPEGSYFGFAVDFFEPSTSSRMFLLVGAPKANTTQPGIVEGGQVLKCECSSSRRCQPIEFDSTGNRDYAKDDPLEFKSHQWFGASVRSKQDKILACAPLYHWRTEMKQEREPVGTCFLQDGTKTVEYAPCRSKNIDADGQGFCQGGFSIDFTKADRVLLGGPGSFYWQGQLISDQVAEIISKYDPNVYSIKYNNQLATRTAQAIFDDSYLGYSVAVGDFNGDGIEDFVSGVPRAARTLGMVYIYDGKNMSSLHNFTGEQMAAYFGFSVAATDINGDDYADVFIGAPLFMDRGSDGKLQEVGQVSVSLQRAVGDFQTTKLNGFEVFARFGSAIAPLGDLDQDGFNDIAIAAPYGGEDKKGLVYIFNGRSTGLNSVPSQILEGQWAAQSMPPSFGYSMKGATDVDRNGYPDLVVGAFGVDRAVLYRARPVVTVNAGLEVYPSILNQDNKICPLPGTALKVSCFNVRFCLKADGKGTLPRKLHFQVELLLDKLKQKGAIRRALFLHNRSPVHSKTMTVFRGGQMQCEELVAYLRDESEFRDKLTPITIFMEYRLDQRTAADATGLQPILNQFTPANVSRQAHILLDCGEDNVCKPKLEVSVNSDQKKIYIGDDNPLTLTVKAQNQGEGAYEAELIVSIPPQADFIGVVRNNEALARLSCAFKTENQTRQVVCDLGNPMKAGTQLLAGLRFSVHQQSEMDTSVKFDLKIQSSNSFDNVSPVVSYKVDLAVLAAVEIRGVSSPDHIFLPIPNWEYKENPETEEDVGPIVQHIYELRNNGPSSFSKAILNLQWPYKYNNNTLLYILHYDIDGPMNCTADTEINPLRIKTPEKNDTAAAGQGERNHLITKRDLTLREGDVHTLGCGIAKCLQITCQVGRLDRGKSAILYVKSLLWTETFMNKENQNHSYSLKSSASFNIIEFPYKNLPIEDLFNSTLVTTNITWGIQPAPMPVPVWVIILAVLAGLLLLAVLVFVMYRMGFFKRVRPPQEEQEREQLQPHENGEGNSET
Chain of αvβ3 integrin receptor expressed on mouse H5V endothelial cells (mouse) (O54890 26-787, chain 2 of 2, further chain): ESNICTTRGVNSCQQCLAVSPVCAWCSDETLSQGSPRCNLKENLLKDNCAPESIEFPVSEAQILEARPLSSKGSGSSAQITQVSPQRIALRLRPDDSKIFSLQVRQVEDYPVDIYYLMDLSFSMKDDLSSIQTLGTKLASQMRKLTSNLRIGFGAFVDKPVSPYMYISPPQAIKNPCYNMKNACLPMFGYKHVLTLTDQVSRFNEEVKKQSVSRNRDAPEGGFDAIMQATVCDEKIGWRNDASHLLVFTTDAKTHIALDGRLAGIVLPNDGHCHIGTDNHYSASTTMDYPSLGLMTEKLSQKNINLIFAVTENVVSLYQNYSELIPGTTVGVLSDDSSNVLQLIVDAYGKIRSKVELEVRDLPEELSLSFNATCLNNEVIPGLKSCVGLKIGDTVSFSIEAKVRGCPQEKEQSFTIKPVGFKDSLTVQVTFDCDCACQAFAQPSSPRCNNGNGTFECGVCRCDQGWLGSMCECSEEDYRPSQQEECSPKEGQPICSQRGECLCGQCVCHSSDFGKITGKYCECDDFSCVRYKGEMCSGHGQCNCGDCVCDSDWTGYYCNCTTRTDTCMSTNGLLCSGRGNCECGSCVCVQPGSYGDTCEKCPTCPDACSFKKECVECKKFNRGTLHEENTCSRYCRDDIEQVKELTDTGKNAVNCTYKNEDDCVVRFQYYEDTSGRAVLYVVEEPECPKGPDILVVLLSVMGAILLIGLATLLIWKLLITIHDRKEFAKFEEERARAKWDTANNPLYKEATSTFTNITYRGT

| Binder | H5V endothelial cell detachment (rounded cells) in cell-rounding assay, 100 µM RGD-4C [1] | ratio of total binding to non-specific binding [2] | Kd [3] | ratio of total binding to non-specific binding [4] |
| --- | --- | --- | --- | --- |
| B1 | 99% | – | – | – |
| B2 | – | 4 | 0.0372 to 0.0413 µM | 1 |
